Results reported in article PMC4141790, “RecA Protein Plays a Role in the Chemotactic Response and Chemoreceptor Clustering of Salmonella enterica” (PLoS ONE, 2014).

B1: RecA protein fused to a β-galactosidase truncation (ΔαRecA / ΔωRecA) (natural protein)
chain: MAIDENKQKALAAALGQIEKQFGKGSIMRLGEDRSMDVETISTGSLSLDIALGAGGLPMGRIVEIYGPESSGKTTLTLQVIAAAQREGKTCAFIDAEHALDPVYARKLGVDIDNLLCSQPDTGEQALEICDALARSGAVDVIVVDSVAALTPKAEIEGEIGDSHMGLAARMMSQAMRKLAGNLKQSNTLLIFINQIRMKIGVMFGNPETTTGGNALKFYASVRLDIRRIGAVKEGDNVVGSETRVKVVKNKIAAPFKQAEFQILYGEGINFYGELVDLGVKEKLIEKAGAWYSYNGEKIGQGKANATTWLKENPATAKEIEKRVRELLLSNQNATPDFAVDDSEGVAETNEDF
notes: RecA, S. enterica sv; Typhimurium; the recA gene was PCR-amplified and cloned (SphI/BamHI) into both pB2HΔα and pB2HΔω; One molecule for both fusions (Δα and Δω), since each protein stood in both positions of the two-hybrid system; also called Δα-recA fusion; Δω-recA fusion; source: two-hybrid fusion, co-expressed in E. coli MC1061 (pB2HΔα / pB2HΔω derivatives, 20 nM IPTG)
B2: CheW coupling protein fused to a β-galactosidase truncation (ΔαCheW / ΔωCheW) (natural protein)
chain: MTGMSNVSKLAGEPSGQEFLVFTLGNEEYGIDILKVQEIRGYDQVTRIANTPAFIKGVTNLRGVIVPIVDLRVKFCEGDVEYDDNTVVIVLNLGQRVVGIVVDGVSDVLSLTAEQIRPAPEFAVTLSTEYLTGLGALGERMLILVNIEKLLNSEEMALLDIAASHVA
notes: CheW coupling protein, S. enterica sv; Typhimurium; the cheW gene was PCR-amplified and cloned (SphI/BamHI) into both pB2HΔα and pB2HΔω; One molecule for both fusions (Δα and Δω), since each protein stood in both positions of the two-hybrid system; also called Δα-cheW fusion; Δω-cheW fusion; source: two-hybrid fusion, co-expressed in E. coli MC1061 (pB2HΔα / pB2HΔω derivatives, 20 nM IPTG)

How the values were obtained:
[1] = biological target: B2; experiment: two-hybrid; β-galactosidase Δα/Δω complementation (pB2HΔα/pB2HΔω) in E. coli MC1061; 37°C, samples 5 h after 20 nM IPTG; activity relative to the non-interaction control strain expressing ΔαAmyA and ΔωDnaE; details: partners not purified
[2] = biological target: B1; experiment: as above; details: partners not purified

Binder | relative β-galactosidase expression [1] | relative β-galactosidase expression [2]
B1 | > 7 relative to the non-interaction control strain | –
B2 | – | > 7 relative to the non-interaction control strain
